T1: MRB1590(10-668) (Trypanosoma brucei, UniProt UPI00067E648B 10-668)
T1 sequence: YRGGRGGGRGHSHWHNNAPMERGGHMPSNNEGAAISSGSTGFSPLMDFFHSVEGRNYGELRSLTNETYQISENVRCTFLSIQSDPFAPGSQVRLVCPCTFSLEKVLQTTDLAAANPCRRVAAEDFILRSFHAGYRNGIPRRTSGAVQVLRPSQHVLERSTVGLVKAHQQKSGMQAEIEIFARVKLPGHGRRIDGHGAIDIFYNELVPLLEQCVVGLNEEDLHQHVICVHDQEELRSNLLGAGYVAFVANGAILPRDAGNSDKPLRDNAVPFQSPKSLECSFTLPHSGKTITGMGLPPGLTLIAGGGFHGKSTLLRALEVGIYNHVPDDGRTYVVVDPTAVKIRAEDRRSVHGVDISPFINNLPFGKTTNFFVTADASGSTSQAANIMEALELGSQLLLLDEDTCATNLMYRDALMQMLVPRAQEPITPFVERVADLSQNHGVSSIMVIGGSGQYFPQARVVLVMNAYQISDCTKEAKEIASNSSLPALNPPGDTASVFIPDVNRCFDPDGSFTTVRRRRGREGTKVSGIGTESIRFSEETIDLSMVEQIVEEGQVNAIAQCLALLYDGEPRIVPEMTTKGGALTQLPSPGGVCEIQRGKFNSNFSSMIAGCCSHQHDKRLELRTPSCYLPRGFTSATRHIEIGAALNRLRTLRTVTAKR

B1: dsGC-rich RNA (dsRNA)
RNA 1: AGGCGGGCGGGCGACGGCGGU
RNA 2: ACCGCCGUCGCCCGCCCGCCU

Assays:
MRB1590(10-668) [1] = molecular target: T1, MRB1590(10-668); assay: fluorescence polarization; ADP, Mg2+; FP: 20 mM Tris-HCl pH 7.5, 150 mM NaCl, 5% glycerol, 1 mM MgCl2, 2 mM ADP or AMP-PNP, 1 nM 3'-fluoresceinated RNA (heated to 99 C, slow cooled), 25 C; conditions: protein: recombinant, chain copies: 2
MRB1590(10-668) [2] = molecular target: T1, MRB1590(10-668); assay: fluorescence polarization; AMP-PNP (table header says ATP), Mg2+; FP: 20 mM Tris-HCl pH 7.5, 150 mM NaCl, 5% glycerol, 1 mM MgCl2, 2 mM ADP or AMP-PNP, 1 nM 3'-fluoresceinated RNA (heated to 99 C, slow cooled), 25 C; conditions: protein: recombinant; chain copies: 2; label: 3' fluorescein
MRB1590 R199A-R200A = MRB1590 R199A-R200A (Trypanosoma brucei, UniProt UPI00067E648B 10-668, R199A;R200A); assay: fluorescence polarization; ADP, Mg2+; FP: 20 mM Tris-HCl pH 7.5, 150 mM NaCl, 5% glycerol, 1 mM MgCl2, 2 mM ADP or AMP-PNP, 1 nM 3'-fluoresceinated RNA (heated to 99 C, slow cooled), 25 C; conditions: protein: recombinant; chain copies: 2; label: 3' fluorescein
MRB1590 F95A = MRB1590 F95A (Trypanosoma brucei, UniProt UPI00067E648B 10-668, F95A); assay: as above; conditions: protein: recombinant; chain copies: 2; label: 3' fluorescein
MRB1590(10-668) [3] = molecular target: T1, MRB1590(10-668); assay: fluorescence polarization; ADP, Mg2+; 1 RNA : 2 subunits; FP: 20 mM Tris-HCl pH 7.5, 150 mM NaCl, 5% glycerol, 1 mM MgCl2, 2 mM ADP or AMP-PNP, 1 nM 3'-fluoresceinated RNA (heated to 99 C, slow cooled), 25 C; conditions: protein: recombinant; chain copies: 2; label: 3' fluorescein
MRB1590 R191A = MRB1590 R191A (Trypanosoma brucei, UniProt UPI00067E648B 10-668, R191A); assay: fluorescence polarization; ADP, Mg2+; small effect vs wt; FP: 20 mM Tris-HCl pH 7.5, 150 mM NaCl, 5% glycerol, 1 mM MgCl2, 2 mM ADP or AMP-PNP, 1 nM 3'-fluoresceinated RNA (heated to 99 C, slow cooled), 25 C; conditions: protein: recombinant; chain copies: 2; label: 3' fluorescein
MRB1590 Y637A = MRB1590 Y637A (Trypanosoma brucei, UniProt UPI00067E648B 10-668, Y637A); assay: fluorescence polarization; ADP, Mg2+; little effect vs wt; FP: 20 mM Tris-HCl pH 7.5, 150 mM NaCl, 5% glycerol, 1 mM MgCl2, 2 mM ADP or AMP-PNP, 1 nM 3'-fluoresceinated RNA (heated to 99 C, slow cooled), 25 C; conditions: protein: recombinant; chain copies: 2; label: 3' fluorescein

Binder | Kd (MRB1590(10-668) [1]; label: 3' fluorescein) | also measured
AGAGGCGGGCGGGCGACGGCGGU (structured_RNA) [GC-rich hairpin RNA] |  | binding result (MRB1590(10-668) [1]; label: 3' fluorescein, hairpin): no binding
GAUUUUUUGAGUGGGACUGGAGAGAAAGAGCCGUUCGAGC (ssRNA) [RSP12 #2] | 27 ± 2.8 nM | 
GAACCUGGUAGGUGUAAUGAAAUAAUUUUGU (ssRNA) [COX II #2] | 43 ± 1.6 nM | 
GAGAAGGCGAGGGCGACGGGCAAAAGAUUUU (ssRNA) [NAD7 #2] | 7.8 ± 0.5 nM | 
UGAUACAAAAAAACAUGACUACAUGAUAAGUA (ssRNA) [NAD7 #1] | 50 ± 4 nM | 
ACCGCCGUCGCCCGCCCGCCU (ssRNA) [Complement of GC-rich RNA] | 395 ± 95 nM | Kd (MRB1590(10-668) [2]): 377 ± 69 nM
AGGCGGGCGGGCGACGGCGGU (ssRNA) [GC-rich sequence RNA (A6 pause site, 21 mer)] |  | binding signal (MRB1590 R199A-R200A): 590 fold reduction vs wt; binding signal (MRB1590 F95A): 10 fold reduction vs wt; Kd (MRB1590(10-668) [3]): 2.2 ± 0.2 nM; binding result (MRB1590 R191A): binds; binding result (MRB1590 Y637A): binds
B1 |  | Kd (MRB1590(10-668) [1]): 50 ± 15 nM
AAAAAAAAAAAAAAA (ssRNA) [A15 RNA] | 437 ± 80 nM | 
UUUUUUUUUUUUUUU (ssRNA) [U15 RNA] | 182 ± 30 nM | 
CUAAUACACUUUUGAUAACAAACUAAAGUAAAAAGGCGAG (ssRNA) [RSP12 #1] | 63 ± 2.5 nM | 
ACAAUAUCAAGUUUAGGUAUAAAGUAGA (ssRNA) [COX II #1] | 44 ± 2 nM | 

From publication PMC4538832, “Structures of the T. brucei kRNA editing factor MRB1590 reveal unique RNA-binding pore motif contained within an ABC-ATPase fold”
